Experimental data as given in US10723806B2, “Method of introducing nucleic acid into plant cells” (RIKEN, priority 2012, dated 2020).
Ends that are not written are not given here.

Assays:
[1] = test system: Nicotiana benthamiana leaf; assay: In-vivo transfection of tobacco leaf with RLuc-encoding pDNA complex, Renilla luciferase assay; conditions: for RLuc expression (relative photometric unit/protein weight): peptide alone as carrier of pDNA, N/P ratio 0.5, 12 hours, benthamiana tobacco leaf; for transfection efficiency (RLuc assay) compared to complexes having other N/P ratios: N/P ratio 0.5, tobacco leaf; for incubation time showing the highest transfection efficiency: tobacco leaf, sampled 12 to 144 hours
Description: In-vivo transfection experiment using the tobacco leaf was performed to evaluate an ability of a carrier peptide-pDNA complex to deliver a gene into plant cells through a cell wall. Complexes of pDNA encoding RLuc and GFP serving as a reporter gene with R9-BP 100 and (KH)9-BP100 were directly allowed to permeate into Nicotiana benthamiana leaf. To determine the most efficient N/P ratio of a pDNA complex in the range of 0.1 to 20, a transfection efficiency is quantitatively characterized by use of RLuc assay.
A target plant was prepared as follows. Seeds of benthamiana tobacco were germinated in a pot containing a culture medium, which is a mixture of a soil (Pro-Mix) and vermiculite in a ratio of 2:1. The benthamiana tobacco plant was grown up to three weeks in a plant incubator (Biotron NK System) under constant light irradiation for 24 hours at a temperature of 29° C.
Leaves of benthamiana tobacco were sufficiently spread and directly impregnated with a solution (about 100 μL) of a complex comprising pDNA encoding green fluorescence protein (GFP) and Renilla luciferase (RLuc) by use of a syringe without a needle. The benthamiana tobacco plants thus treated were incubated in a plant incubator separately at a temperature of 29° C. and 21° C. under constant light irradiation for 16 hours per day until 6 days. To quantitatively evaluate RLuc gene expression, Renilla luciferase assay (Promega) was performed in accordance with the protocol provided by a manufacturer (n=4).
To be described in brief, sampling of the leaf impregnated was performed periodically in the range of 12 hours to 144 hours by cutting a square (1 cm^2) around an impregnated section. The samples each were lysed by use of Renilla Luciferase Assay Lysis Buffer (Promega). The lysate was briefly centrifuged and the supernatant was mixed with Renilla Luciferase Assay Substrate and Renilla Luciferase Assay Buffer (Promega). Gene expression was evaluated by a multi-mode microplate reader (Spectra MAX M3, Molecular Devices Corporation) based on the intensity (relative photometric unit) of photoluminescence. The amount of protein in the supernatant was determined by BCA protein assay (Pierce Biotechnology) to obtain a relative photometric unit/protein weight (RLU/mg). A transformant with RLuc gene-encoding pDNA via Agrobacterium (Agrobacterium) was used as a positive control in the experiment.
The statistical difference in transfection efficiency was determined by independent t-test using bilateral distribution. It was regarded that a statistically-significant difference is present at p<0.05. The data obtained in a cell survivability experiment are shown as an average±a standard deviation (n=4).

pDNA = assay: Gel retardation assay (agarose gel electrophoresis) of carrier peptide-pDNA complexes; assay type: physicochemical; conditions: pDNA complex
Description: (§1) Solutions containing complexes each were diluted with ultra-pure water (MilliQ) up to a final volume of 800 μL and subjected to measurement of zeta potential and size. The zeta potential and zeta shift of the solution samples were measured three times by a zeta potential meter and averages of data were obtained by use of Zetasizer software ver 6.20 (Malvern Instruments Ltd). Dynamic light scattering (DLS) was performed to determine hydrodynamic diameters. Subsequently, polydispersion indexes (PDI) were determined by use of a zeta nanosizer (Zetasizer software ver 6.20) using He—Ne laser (633 nm) at 25° C. and a backscattering detection angle of 173°. Observation by an AFM was performed by fixing a complex solution on cut mica and using a silicon cantilever in air at room temperature in a tapping mode at a spring constant of 1.3 N/m. A cantilever tip rotation effect was obtained by calculation and true dimensions of complexes were obtained by the method previously reported (K. Numata, Y. Kikkawa, T. Tsuge et al., Macromol Biosci 6 (1), 41, 2006; K. Numata, T. Hirota, Y. Kikkawa et al., Biomacromolecules 5 (6), 2186, 2004). For gel retardation assay, each sample (40 μL) containing 1.0 μg of pDNA was mixed with a loading buffer, analyzed on a 1% agarose gel (TAE buffer, 100 V, 30 minutes) and stained with ethidium bromide.

Arabidopsis thaliana L. = assay: Introduction of giant DNA (80 kbp luciferase plasmid) into Arabidopsis thaliana L.; assay type: in vivo; conditions: complex with 80 kbp luciferase plasmid, twelve hours after introduction
Description: A plasmid (80 kbp) encoding luciferase was prepared by use of Bacillus subtilis and introduced into Arabidopsis thaliana L. by use of a carrier peptide ((KH)9-BP100). Twelve hours after introduction of the complex, luciferase was extracted from the leaf and subjected to quantitative analysis.

[2] = Zeta potential of carrier peptide-pDNA complexes; assay type: physicochemical; conditions: pDNA complex
Description: (§2) Two types of pDNA, i.e., green fluorescence protein (GFP)-encoding P35S-GFP (S65T)-TNOS and Renilla luciferase (RLuc)-encoding P35S-RLuc-TNOS, were used as reporter genes. All pDNA molecules were amplified in a competent DH5α E. coli (Takara) and purified by an Endofree Plasmid Giga Kit (Qiagen). To prepare a carrier peptide-pDNA complex, a carrier peptide (0.5 g/L) was mixed with a pDNA solution (about 1.0 mg/mL) so as to have different N/P ratios (0.5, 1, 2, 5, 10 and 20) at 25° C. Immediately after mixing, complexes were characterized by a zeta potential meter (Zetasizer Nano-ZS, Malvern Instruments Ltd) and an atomic force microscope (Seiko Instruments).
as §1

[3] = Dynamic light scattering (DLS) size and PDI of carrier peptide-pDNA complexes; assay type: physicochemical; conditions: complex with pDNA
Description: Ionic complexes of carrier peptides (R9-BP100 and (KH)9-BP100) different in N/P ratio and pDNA encoding a reporter gene were prepared and characterized by use of dynamic light scattering (DLS), an atomic force microscope (AFM), a zeta potential meter and agarose gel electrophoresis. The N/P ratio herein refers to the ratio of the number of amine groups from the carrier peptide and the number of phosphate groups from pDNA.
as §2, §1

[4] = test system: mitochondria of leaf of Arabidopsis thaliana L.; assay: Organelle selective gene introduction, Renilla luciferase expression in mitochondria of Arabidopsis thaliana L. leaf; assay type: in vivo; conditions: complex with pDONRcox2p: rluc/gfp
Description: A carrier peptide comprising a mitochondrial transit sequence (Cytochrome c oxidase subunit IV (yeast)) and a polycationic sequence was synthesized. In other words, ([…]) (SEQ ID NO: 43) was synthesized by the solid phase peptide synthesis. The mitochondrial transit sequence is represented by MLSLRQSIRFFK (SEQ ID NO: 44) and the polycationic sequence is represented by KHKHKHKHKHKHKHKHKH) (SEQ ID NO: 22). Then, a complex was prepared from the carrier peptide synthesized and a plasmid vector (pDONRcox2p: rluc/gfp) that can function in mitochondria. In the same manner as in the above Examples, the complex was introduced into a leaf of Arabidopsis thaliana L. and expression of a reporter gene (Renilla Luciferase) in the mitochondria was quantitatively evaluated. Using a promoter (cox) which specifically functions in mitochondria, whether the complex was specifically introduced into the mitochondria was determined.

[5] = N/P ratio within the range of 2 to 20

Row | Substance | RLuc expression (relative photometric unit/protein weight) [1] | zeta potential ([2]; N/P ratio of 0.5 and 1) | zeta potential [2, 5] | PDI ([3]; N/P ratio 0.5) | Size (average hydrodynamic diameter, DLS) ([3]; N/P ratio 0.5) | PDI ([3]; N/P ratio 1) | Size (average hydrodynamic diameter, DLS) ([3]; N/P ratio 1) | PDI ([3]; N/P ratio 2) | Size (average hydrodynamic diameter, DLS) ([3]; N/P ratio 2) | PDI ([3]; N/P ratio 5) | Size (average hydrodynamic diameter, DLS) ([3]; N/P ratio 5) | PDI ([3]; N/P ratio 10) | Size (average hydrodynamic diameter, DLS) ([3]; N/P ratio 10) | PDI ([3]; N/P ratio 20) | Size (average hydrodynamic diameter, DLS) ([3]; N/P ratio 20) | transfection efficiency (RLuc assay) compared to complexes having other N/P ratios ([1]; pDNA complex) | incubation time showing the highest transfection efficiency ([1]; pDNA complex) | also measured
1 | KHKHKHKHKHKHKHKHKH [(KH)9, reference compound] | 340±60 RLU/mg | – | – | – | – | – | – | – | – | – | – | – | – | – | – | – | – | –
2 | KHKHKHKHKHKHKHKHKHKKLFKKILKYL-NH2 [(KH)9-BP100, tested as ionic complex with pDNA] | – | negative values | positive values | 0.31 | 291 nm | 0.30 | 322 nm | 0.23 | 139 nm | 0.23 | 106 nm | 0.23 | 96 nm | 0.24 | 114 nm | highest transfection efficiency | 12 h | mobility of pDNA in agarose gel electrophoresis (pDNA; N/P ratio up to 10): a small amount of pDNA migrated; luciferase activity in leaf (Arabidopsis thaliana L.): efficient luciferase activity was confirmed
3 | KKLFKKILKYL [BP100, cell-penetrating peptide alone, synthesized for controls, reference compound] | 120±70 RLU/mg | – | – | – | – | – | – | – | – | – | – | – | – | – | – | – | – | –
4 | MLSLRQSIRFFKKHKHKHKHKHKHKHKHKH [SEQ ID NO: 43] | – | – | – | – | – | – | – | – | – | – | – | – | – | – | – | – | – | gene introduction efficiency to mitochondria (Rluc) among N/P=0.5, 1 and 2 [4]: a highly significant difference was shown
5 | RRRRRRRRRKKLFKKILKYL-NH2 [R9-BP100, tested as ionic complex with pDNA] | – | negative values | positive values | 0.34 | 319 nm | 0.38 | 321 nm | 0.21 | 151 nm | 0.21 | 127 nm | 0.23 | 114 nm | 0.25 | 116 nm | highest transfection efficiency | 12 h | mobility of pDNA in agarose gel electrophoresis (pDNA; N/P ratio of 0.5 to 2): the same mobility as that of a free pDNA; mobility of pDNA in agarose gel electrophoresis (pDNA; N/P ratio of 10 and 20): no mobility was observed; time-dependent transfection behavior ([1]; pDNA complex, compared to (KH)9-BP100): quick and short transfection behavior
